Results on 3 molecules are retold here after publication PMC4718896 (Biochemistry, 2015).

Like-named read-outs stand apart in the source and are kept apart here.

For data set [1], the target named is PKR (Homo sapiens) (UniProt P19525). The settings on record: cited from earlier work.
Data set [2] concerns the molecule itself. In words: AUC.
Data set [3] concerns the molecule itself. The data set is described as follows: AUC. This is another data set of the same source.

As usually defined, the Kd is a measure of binding affinity in units of concentration. Turning to PKR (from UniProt P19525), the dissociation constant Kd in data set [1] was 500 µM.

B1: PKRΔVB (human PKR with the whole interdomain linker, variable and basic regions, deleted) (enzyme, UniProt P19525 1-551, looked up)
chain: MAGDLSAGFFMEELNTYRQKQGVVLKYQELPNSGPPHDRRFTFQVIIDGREFPEGEGRSKKEAKNAAAKLAVEILNKEKKAVSPLLLTTTNSSEGLSMGNYIGLINRIAQKKRLTVNYEQCASGVHGPEGFHYKCKMGQKEYSIGTGSTKQEAKQLAAKLAYLQILETKYTVDKRFGMDFKEIELIGSGGFGQVFKAKHRIDGKTYVIKRVKYNNEKAEREVKALAKLDHVNIVHYNGCWDGFDYDPETSDDSLESSDYDPENSKNSSRSKTKCLFIQMEFCDKGTLEQWIEKRRGEKLDKVLALELFEQITKGVDYIHSKKLIHRDLKPSNIFLVDTKQVKIGDFGLVTSLKNDGKRTRSKGTLRYMSPEQISSQDYGKEVDLYALGLILAELLHVCDTAFETSKFFTDLRDGIISDIFDKKEKTLLQKLLSKKPEDRPNTSEILRTLTVWKKSPEKNERHTC
As a reminder, the stoichiometry N is a count of units in the complex or per binding partner. In the case of B1, in data set [2], the Kd amounted to 1730 µM and the “stoichiometry N” value is 2.

B2: PKRΔV (human PKR with the variable region of the interdomain linker deleted) (enzyme, UniProt P19525 1-551, looked up)
chain: MAGDLSAGFFMEELNTYRQKQGVVLKYQELPNSGPPHDRRFTFQVIIDGREFPEGEGRSKKEAKNAAAKLAVEILNKEKKAVSPLLLTTTNSSEGLSMGNYIGLINRIAQKKRLTVNYEQCASGVHGPEGFHYKCKMGQKEYSIGTGSTKQEAKQLAAKLAYLQILMNGLRNNQRKAKRSLAPRFDLPDMKETKYTVDKRFGMDFKEIELIGSGGFGQVFKAKHRIDGKTYVIKRVKYNNEKAEREVKALAKLDHVNIVHYNGCWDGFDYDPETSDDSLESSDYDPENSKNSSRSKTKCLFIQMEFCDKGTLEQWIEKRRGEKLDKVLALELFEQITKGVDYIHSKKLIHRDLKPSNIFLVDTKQVKIGDFGLVTSLKNDGKRTRSKGTLRYMSPEQISSQDYGKEVDLYALGLILAELLHVCDTAFETSKFFTDLRDGIISDIFDKKEKTLLQKLLSKKPEDRPNTSEILRTLTVWKKSPEKNERHTC
For B2, in data set [3], binding was put at a Kd of 1100 µM and the “stoichiometry N” value stood at 2.
